Key:
PCSK9 = biological target: T1, PCSK9 (Homo sapiens, UniProt Q8NBP7); test: spot phage ELISA of EGF(A)-displaying phage clones against biotinylated PCSK9; assay type: binding; details: compared to wild type
T1 construct: His8 (C); made in house; host or cells: CHO cells, transient, pRK5 vector, purified from conditioned media
Procedure: “s/n ratio” refers to signal:noise ratio, wherein “signal” is the spot phage ELISA signal detected against biotinylated PCSK9 captured by NeutrAvidin coated on the 384-well MaxiSorp™ plate; “noise” is the ELISA signal against NeutrAvidin alone.
After four rounds of binding selection, individual phage clones were picked and inoculated into 450 μl 2YT media containing 50 μg/ml carbenecillin and M13-KO7 helper phage in 96-well blocks, which were grown at 37° C. for overnight. The supernatant was analyzed with spot phage ELISA as follows: Biotinylated PCSK9 was captured to NeutrAvidin-coated 384-well MaxiSorp™ immunoplates and phage supernatant diluted (1:3) with PBT buffer was added to the wells. The plates were washed and bound phage was detected with anti-M13-HRP followed by TMB substrate. In these assays, phage binding to NeutrAvidin alone was tested in parallel to assess background binding. Clones whose binding signals for PCSK9 were more than 4 times higher than to NeutrAvidin (background) were considered positive. Positive clones were subjected to DNA sequence analysis.

PCSK9 binding to LDLR = biological target: T2, PCSK9 binding to LDLR (Homo sapiens, UniProt Q8NBP7); test: competition binding ELISA (biotinylated PCSK9 binding to coated rLDLR); details: Fc fusion protein; average ±SD of three experiments; read-out: IC50, inhibition of PCSK9 binding to LDLR
T2 construct: His8 (C); biotin (chemical, Sulfo-NHS); host or cells: PCSK9: CHO cells, transient; LDLR extracellular domain purchased
Procedure: The blocking activity of EGF peptides and EGF-Fc fusion proteins was determined by using a competition binding ELISA. Wells of 384 well MaxiSorp™ plates (Nalge Nunc International; Rochester, N.Y.) were coated overnight at 4° C. with 1 μg/mL of recombinant human LDLR extracellular domain (rLDLR) (R&D Systems; Minneapolis, Minn.) in coating buffer (50 mM sodium carbonate, pH 9.6). Then 0.5 μg/ml of biotinylated PCSK9 in assay buffer (25 mM HEPES, pH 7.2, 150 mM NaCl, 0.2 mM CaCl2, 0.1% BSA, 0.05% Tween®20) was mixed with an equal volume of serially diluted EGF peptides (0.017-6000 nM) or EGF-Fc (0.034-6000 nM) and incubated for 30 min. The solutions were added to rLDLR coated plates and incubated for 2 h. Bound biotinylated rPCSK9 was detected by sequential additions of streptavidin-horseradish peroxidase (GE Healthcare; Buckinghamshire, UK) and substrate 3, 3′, 5, 5′ tetramethyl benzidine (TMBE 1000, Moss; Pasadena, Md.). The mean absorbance values from duplicate wells were plotted as a function of antibody concentration and the data were fitted to a four parameter equation for each antibody using KaleidaGraph (Synergy Software; Reading, Pa.).

[1] = test system: PCSK9-mediated LDLR degradation; test: LDLR degradation assay with HepG2 cells (FACS of cell surface LDLR); assay type: cell-based, human; details: HepG2, 15 μg/ml PCSK9, 4 h, highest concentration tested 20 μM
Procedure: Values are the average ±SD of three independent experiments.
HepG2 cells (ATCC; Manassas, Va.) were seeded into 48 well plates (Corning; Corning, N.Y.) at 1×10^5 cells per well in high glucose medium (DMEM, Gibco; Carlsbad, Calif.) containing 2 mM glutamine (Sigma), penicillin/streptomycin (Gibco) and 10% FBS (Sigma) and incubated overnight. Then the medium was changed to DMEM containing 10% lipoprotein deficient serum (LPDS, Intracel; Frederick, Md.). After 24 h, 15 μg/ml PCSK9 was mixed with serially diluted EGFwt-Fc and EGF66-Fc fusion proteins, added to the cells and incubated at 37° C. for 4 h. Cells were rinsed with PBS and detached using 2.5 mM EDTA (EMD; Gibbstown, N.J.). After centrifugation, the resuspended cells were incubated with 1:20 anti-LDLR antibody (Progen Biotechnik; Heidelberg, Germany) on ice for 15 min. The samples were then washed with PBS and incubated with 1:200 diluted goat anti mouse IgG Alexa Fluor® 488 (Invitrogen; Carlsbad, Calif.) on ice for 15 min. After two PBS washes cells were resuspended in PBS containing 10 μg/ml of propidium iodide and analyzed on a dual laser flow cytometer (FACScan, Becton Dickinson; Franklin Lakes, N.J.). Relative fluorescence units (RFUs) were used to quantify LDLR expression levels on the HepG2 cell surface. Cell surface LDLR levels were expressed as percent of LDLR levels measured in the absence of PCSK9 (=control).

liver LDLR = test: rescue of liver LDLR upon treatment with PCSK9 in a mouse model (immuno-blotting); assay type: in vivo; details: mice, 60 mg/kg i.v. 2 h before 30 μg PCSK9 i.v., liver after 1 h
Procedure: Mice were injected with vehicle (V), EGF-Fc (WT) or EGF66-Fc (MUT) followed by a bolus injection of recombinant human PCSK9 (30 μg/mouse). Livers were collected after 1 h and LDLR quantified by immuno-blotting. Each lane represents the pooled liver samples of three mice. The band intensities were quantified, normalized to transferring receptor contents and expressed as fraction of the untreated group (=1.0).
To determine whether increased affinity and cell efficacy could translate into improved therapeutic potential, we compared the effects of EGFwt-Fc and EGF66-Fc in rescuing liver LDLR upon treatment with PCSK9 in a mouse model. Eight weeks old male C57BL/6 mice were purchased from approved vendor and housed for 2 weeks before starting the experiment. […]
Approximately 200 mg of each liver were homogenized in Extraction Buffer 1 supplemented with Protease Inhibitor Cocktail (ProteoExtract® Native Membrane Protein Extraction Kit, Cat. No. 444810, Calbiochem) using the TissueLyser (Qiagen) according to manufacturer's instructions. […] After 30 min of gentle agitation at 4° C., the samples were centrifuged and the supernatants containing the membrane proteins were quantified using the Bradford assay. […]
Mice were first injected with vehicle, EGFwt-Fc and EGF66-Fc followed by a bolus of recombinant human PCSK9 (30 μg/mouse) and livers were collected and analyzed 1 h later. […]

T1 sequence (Q8NBP7 153-692): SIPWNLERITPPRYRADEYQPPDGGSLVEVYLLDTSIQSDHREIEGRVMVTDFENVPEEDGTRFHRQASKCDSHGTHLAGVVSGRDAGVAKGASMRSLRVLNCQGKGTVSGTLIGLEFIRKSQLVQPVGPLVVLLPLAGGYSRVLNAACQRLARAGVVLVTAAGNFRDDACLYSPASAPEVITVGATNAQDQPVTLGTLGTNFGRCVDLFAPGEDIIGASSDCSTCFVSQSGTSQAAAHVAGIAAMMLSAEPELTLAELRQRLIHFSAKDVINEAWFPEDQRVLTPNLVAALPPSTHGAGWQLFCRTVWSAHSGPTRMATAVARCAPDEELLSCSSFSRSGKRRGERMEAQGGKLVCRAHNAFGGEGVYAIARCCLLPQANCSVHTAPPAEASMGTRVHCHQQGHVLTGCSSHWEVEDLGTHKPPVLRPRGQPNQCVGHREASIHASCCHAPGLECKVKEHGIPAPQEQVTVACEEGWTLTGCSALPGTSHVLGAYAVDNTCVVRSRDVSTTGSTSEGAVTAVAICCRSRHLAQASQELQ
T2 sequence (Q8NBP7 153-692): as above
T2 sequence (Q8NBP7 31-152 partner limits assumed): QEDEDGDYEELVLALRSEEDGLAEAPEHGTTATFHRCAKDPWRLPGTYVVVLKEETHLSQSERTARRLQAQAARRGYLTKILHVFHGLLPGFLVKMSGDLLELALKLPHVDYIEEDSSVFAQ

EGF50: phage-displayed EGF(A) clone with single mutation at N309 to Arg
binding of phage-displayed clone to PCSK9 (in words) (PCSK9): moderate increase of binding

EGF52: EGF(A) variant: Asp299 to Ser, Asn301 to Leu, Asn309 to Arg or Lys, Asp310 to Lys; phage clone and synthetic peptide
IC50 (PCSK9 binding to LDLR): 700 ± 300 pM

EGFwt-Fc: wild type EGF(A) domain of LDLR fused via linker GGGSGAAQVTNKTHT to Fc domain of human IgG1 [reference compound]
LDLR surface levels, percent of control levels measured in the absence of PCSK9 [1]: 56%
liver LDLR level rescued, % of control levels (liver LDLR): less than 50%

From patent US20140212431A1, “PCSK9-BINDING POLYPEPTIDES AND METHODS OF USE” (Genentech, Inc., priority 2011, published 2014)
